Assay results: US20180303937A1, “A COMPOSITION FOR CONTROLLED RELEASE OF A BIOMOLECULE, METHOD OF PREPARATION AND USES THEREOF” (CENTRO DE NEUROCIENCIAS E BIOLOGIA CELULAR, priority 2015, published 2018)

Tested on: SC-1 mouse fibroblasts
Assay: Cytotoxicity of BSA-dsDNA51.7-AuNR (Celltiter-Glo ATP assay)
Type: cell-based
Conditions: 50 μg/mL NR; irradiation 1.25 to 2 W/cm^2, 2 min
Procedure: FIG. 7: Cytotoxicity of BSA-dsDNA51.7-AuNR. Mouse fibroblasts were seeded on a 96 well plate (4×10^3 cells/well), left to adhere for 24 h and then incubated with different concentrations of BSA-dsDNA51.7-AuNR for 4 h. After incubation, the cells were washed with medium to remove non-internalized AuNR. Some of the conditions were irradiated for 2 min with 1.25 or 2 W/cm^2. Then, the plate was left in the incubator for 24 h. The ATP production was measured by a Celltiter-Glo Luminescent Cell Viability Assay (Promega).
Cytotoxicity of BSA-dsDNA51.7-AuNR. SC-1 mouse fibroblasts were grown in DMEM supplemented with 10% fetal bovine serum (FBS), at 37° C. in a fully humidified air containing 5% CO2. To assess the cytotoxicity of gold NRs, fibroblasts were seeded on a 96 well plate (4×10^3 cells/well), left to adhere for 24 h and then incubated with BSA-dsDNA51.7-AuNR for 4 h. After incubation, the cells were washed with medium to remove non-internalized NR. In some conditions, after incubation with BSA-dsDNA51.7-AuNR, the cells were washed and irradiated with a fiber coupled Roithner laser (785 nm). Each well was placed below the end of the fibre and irradiated with a power density of 1.25 and 2 W/cm^2 for 2 min. Then cells were left in the incubator for 24 h and the ATP production was measured by a Celltiter-Glo Luminescent Cell Viability Assay (Promega).

Substance: BSA-dsDNA51.7-AuNR: gold nanorods carrying BSA via dsDNA with melting temperature 51.7° C.
- cytotoxic effects (ATP production): do not show significant cytotoxic effects
